Test results published in patent US20070060521A1.

Target: IL-6 receptor on U266 human myeloma cells (human) (UniProt P08887)
Assay: cell-based or functional assay

Sequence of IL-6 receptor on U266 human myeloma cells (human) (P08887 20-468): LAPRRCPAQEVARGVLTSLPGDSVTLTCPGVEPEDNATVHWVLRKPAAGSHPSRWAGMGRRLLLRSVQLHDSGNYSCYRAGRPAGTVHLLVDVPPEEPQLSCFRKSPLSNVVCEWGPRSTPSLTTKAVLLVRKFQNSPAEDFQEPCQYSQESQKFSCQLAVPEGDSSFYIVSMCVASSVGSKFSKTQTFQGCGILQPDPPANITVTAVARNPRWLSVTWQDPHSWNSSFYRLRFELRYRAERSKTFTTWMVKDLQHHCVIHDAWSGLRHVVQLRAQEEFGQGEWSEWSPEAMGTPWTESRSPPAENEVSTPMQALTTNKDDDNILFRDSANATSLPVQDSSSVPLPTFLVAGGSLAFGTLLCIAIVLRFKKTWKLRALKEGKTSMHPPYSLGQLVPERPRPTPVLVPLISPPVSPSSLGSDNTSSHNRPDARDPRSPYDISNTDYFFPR

reduction of constitutive STAT3 DNA-binding (EMSA) in U266 cells: 70%
Substance: Sant7, IL-6 superantagonist (ligand)
